Source: patent publication US20220251184A1 (Regeneron, published 2022)

T1: human BMP6 (R&D Systems, Cat #507-BP) (human, UniProt P22004 375-513, limits assumed)
T1 construct: Bought protein (R&D Systems 507-BP or 507-BP/CF); also called hBMP6; hBMP-6
T1 sequence: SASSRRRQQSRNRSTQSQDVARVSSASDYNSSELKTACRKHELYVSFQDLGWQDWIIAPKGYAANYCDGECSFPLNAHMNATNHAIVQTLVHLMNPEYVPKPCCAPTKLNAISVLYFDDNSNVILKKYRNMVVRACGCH

T2: mouse BMP6 (R&D Systems, Cat #6325-BM) (mouse, UniProt P20722 372-510, limits assumed)
T2 construct: Bought protein (R&D Systems 6325-BM or 6325-BM/CF); also called mBMP6
T2 sequence: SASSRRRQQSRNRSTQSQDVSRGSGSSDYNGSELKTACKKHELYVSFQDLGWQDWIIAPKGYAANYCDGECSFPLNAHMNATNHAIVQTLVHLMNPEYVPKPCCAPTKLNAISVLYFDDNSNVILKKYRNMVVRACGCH

T3: Human BMP12/GDF7 (human, UniProt Q7Z4P5 322-450, limits assumed)
T3 sequence (looked up): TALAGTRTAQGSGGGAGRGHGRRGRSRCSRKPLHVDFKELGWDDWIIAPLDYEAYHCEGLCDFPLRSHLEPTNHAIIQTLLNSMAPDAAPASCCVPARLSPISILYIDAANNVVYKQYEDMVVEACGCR

T4: Human BMP3b (human, UniProt P55107 369-478, limits assumed)
T4 sequence (looked up): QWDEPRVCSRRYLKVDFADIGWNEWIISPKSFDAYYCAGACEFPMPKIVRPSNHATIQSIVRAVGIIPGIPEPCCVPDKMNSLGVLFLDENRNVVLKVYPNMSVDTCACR

T5: Human BMP5 (human, UniProt P22003 317-454, limits assumed)
T5 sequence (looked up): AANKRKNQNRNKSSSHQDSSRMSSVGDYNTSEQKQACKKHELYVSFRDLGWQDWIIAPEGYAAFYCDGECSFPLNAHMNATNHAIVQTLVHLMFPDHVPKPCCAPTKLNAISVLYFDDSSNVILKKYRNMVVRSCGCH


Key:
[1] = target: T1, human BMP6 (R&D Systems, Cat #507-BP); assay: SPR (MASS-1), mAb captured on anti-human Fc, hBMP6 in solution, 37 C
Description: (§1) Equilibrium dissociation constants (KD values) for human and mouse BMP6 binding to purified anti-BMP6 monoclonal antibodies of this invention were determined using a real-time surface plasmon resonance (SPR) biosensor instrument, MASS-1. All binding studies were performed in 10 mM HEPES, 150 mM NaCl, 3 mM EDTA, 1 μg/mL Heparin, and 0.05% v/v Surfactant Tween-20, pH 7.4 (HBS-EHT) running buffer at 25° C. and 37° C. The HCA sensor surface was first derivatized by amine coupling the monoclonal mouse anti-human Fc antibody (GE, #BR100839) and anti-BMP6 monoclonal antibodies were individually captured. Different concentrations of human BMP6 reagents (hBMP6; R&D Systems, Cat #507-BP; 60 nM-0.94 nM; 4-fold serial dilution) or mouse BMP6 (mBMP6; R&D Systems, Cat #6325-BM; 60 nM and 15 nM) prepared in HBS-EHT running buffer were injected over the captured anti-BMP6 monoclonal antibody for 4 minutes at a flow rate of 30 μL/minute, while the dissociation of BMP6 reagent bound to captured anti-BMP6 monoclonal antibody was monitored for 10 minutes in HBS-EHT running buffer. Kinetic association (kₐ) and dissociation (kd) rate constants were determined by fitting the real-time binding sensorgrams to a 1:1 binding model with mass transport limitation using Scrubber 2.0c software. Binding dissociation equilibrium constant (KD) and dissociative half-life (t½) for different anti-BMP6 monoclonal antibodies were calculated from the kinetic rate constants as: […]

[2] = target: T2, mouse BMP6 (R&D Systems, Cat #6325-BM); assay: SPR (MASS-1), mAb captured on anti-human Fc, mBMP6 in solution, 37 C
Description: as §1

[3] = target: T3, Human BMP12/GDF7; assay: BLI (Octet HTX), mAb captured on Protein A sensor, 100 nM ligand, 25 C
Description: (§2) Binding cross-reactivity of anti-BMP6 monoclonal antibodies to BMP6 family members, (Human: BMP6, BMP5, BMP7, BMP8A, BMP9, BMP10, BMP12, BMP14, BMP3b, Activin A, and GDF3 and mouse: BMP6 and GDF6) was determined using a real-time Bio-Layer Interferometry (BLI) biosensor using Octet HTX instrument. All binding studies were performed in 10 mM HEPES, 150 mM NaCl, 3 mM EDTA, 1 mg/mL BSA, 50 μg/mL Heparin, and 0.05% v/v Surfactant Tween-20, pH 7.4 (HBS-EBHT) buffer at 25° C. with the plate shaking at a speed of 1000 rpm. To assess binding cross-reactivity, Protein A coated Octet biosensor (Pall ForteBio Corp., #18-5010) was first dipped in wells containing […] of anti-BMP6 monoclonal antibodies for 4 minutes followed by submerging in wells containing 100 nM of different BMP6 family members for 4 minutes. The biosensors were washed in HBS-EBHT buffer in between every step of the experiment. At the end of each cycle, the Protein A biosensor was regenerated using three alternate 5 second dips in 10 mM Glycine pH 2.0 and 10 second dip HBS-EBHT buffer. The real-time binding response was monitored during the course of the experiment and the binding response at the end of every step was recorded and tabulated as shown in Tables 8A and 8B.

[4] = target: T4, Human BMP3b; assay: as above
Description: as §2

[5] = target: T1, human BMP6 (R&D Systems, Cat #507-BP); assay: cell-based or functional assay
[6] = target: T2, mouse BMP6 (R&D Systems, Cat #6325-BM); assay: cell-based or functional assay
[7] = target: T1, human BMP6 (R&D Systems, Cat #507-BP); assay: SPR (MASS-1), mAb captured on anti-human Fc, hBMP6 in solution, 25 C
Description: as §1

[8] = target: T2, mouse BMP6 (R&D Systems, Cat #6325-BM); assay: SPR (MASS-1), mAb captured on anti-human Fc, mBMP6 in solution, 25 C
Description: as §1

[9] = target: T5, Human BMP5; assay: BLI (Octet HTX), mAb captured on Protein A sensor, 100 nM ligand, 25 C
Description: as §2

kon [1] [M⁻¹ s⁻¹] | Kd [2] [nM] | koff [2] [s⁻¹] | kon [2] [M⁻¹ s⁻¹] | t1/2 [2] [h] | binding response [3] [nm] | binding response [4] [nm] | IC50 [M], inhibition of 1 nM hBMP6 activation of Hep3B/BRE-luc cells (luciferase) [5] [M] | IC50 [M], inhibition of 5 nM mBMP6 activation of W-20-17/BRE-luc cells (luciferase) [6] [M] | koff [7] [s⁻¹] | kon [7] [M⁻¹ s⁻¹] | t1/2 [7] [h] | Kd [8] [nM] | koff [8] [s⁻¹] | kon [8] [M⁻¹ s⁻¹] | t1/2 [8] [h] | Kd [1] [nM] | t1/2 [1] [h] | binding response [9] [nm] | Kd [7] [nM] | Binder
41600 | 4 | 9.43e-05 | 23500 | 2.05 | 0.01 | 0.19 | 1.6e-09 | 1.1e-08 | 4.14e-05 | 283000 | 4.65 | 3.39 | 0.000127 | 37400 | 1.52 | – | – | – | – | H4H17871P (antibody, V domains shown, Fully human antibody; also called anti-BMP6 monoclonal antibody; BMP6 antibody of the invention) VH: EVQLVESGGGLVQPGGSLRLSCAASGFTFNNYAMSWVRQAPGKGLEWVSAISGSGDSTYYADSVKGRFTISRDNSKNTLYLQMNSLRAEDTAVYYCAKRSRSSPFDPWGQGTLVTVSS VL: not shown
61100 | 6.46 | 0.000154 | 23800 | 1.25 | – | – | 2.5e-10 | 1.9e-09 | 6.3e-05 | 178000 | 3.05 | 3.55 | 0.00013 | 36600 | 1.48 | 1.34 | 2.35 | 0.01 | 0.355 | H4H17855P (antibody, V domains shown, Fully human antibody; also called anti-BMP6 monoclonal antibody; BMP6 antibody of the invention) VH: EVQLVESGGGLVQPGGSLRLSCAASGFTFSSYAMSWVRQAPGKGLEWVSAISGSGGRTYYTDSVKGRFTMSRDNSKNTLYLQMNSLRAEDTAVYYCAKRPYNSPFDPWGQGTLVTVSS VL: EIVLTQSPGTLSLSPGEGATLSCRASQSVSSSYLAWYQQKPGQAPRLLIYGASSRATGIPDRFSGSGSGTDFTLTISRLEPEDFVVYYCQHFGGTPFTFGGGTKVEIK
